Test results from patent US20150284465A1 (Chugai, published 2015).
Where a chain is given by its changes, count along the chain named. Read-outs that look alike come from different tables or passages of the source. One block for each binder: values may come before it.

Assays:
[1] = biological target: T1, SR344 (N-terminal 1st to 344th amino acids of soluble human IL-6R) (human, UniProt P08887 20-344, limits assumed); experiment: SPR (Biacore T100), antibody captured on Protein A/G, SR344 as analyte, 37 C
T1 construct: also called recombinant soluble IL-6 receptor; soluble human IL-6 receptor
T1 sequence (looked up): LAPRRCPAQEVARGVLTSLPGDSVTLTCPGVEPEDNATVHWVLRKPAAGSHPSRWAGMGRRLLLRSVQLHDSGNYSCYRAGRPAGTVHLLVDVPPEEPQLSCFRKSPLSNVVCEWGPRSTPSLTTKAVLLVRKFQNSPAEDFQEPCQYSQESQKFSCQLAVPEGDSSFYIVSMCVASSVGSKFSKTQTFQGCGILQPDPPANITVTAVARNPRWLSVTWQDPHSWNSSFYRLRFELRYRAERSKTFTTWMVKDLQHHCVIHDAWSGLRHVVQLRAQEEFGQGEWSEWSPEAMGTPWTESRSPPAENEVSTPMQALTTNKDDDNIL
Experimental: (§1) This measurement was carried out under the same conditions described in Example 2. The running buffer used was HBS-EP+, and the flow rate was 20 μl/min. Each antibody was prepared so that about 100 RU of the antibody was bound to Protein A/G. SR344 was prepared at 0, 0.065, 0.131, and 0.261 μg/ml using HBS-EP+ and used as an analyte. In the first step of the measurement, the antibody in solution was bound to Protein A/G, and the analyte solution was allowed to interact therewith. After three minutes of interaction, the solution was switched to HBS-EP+, and the dissociation phase was monitored for 10 or 15 minutes. After measurement of the dissociation phase, the sensor chip was regenerated by washing with 10 μl of 10 mM glycine-HCl (pH 1.5). The association, dissociation, and regeneration constitute one analysis cycle. Each antibody was measured according to this cycle.
The sensorgram was kinetically analyzed using the Biacore-specific data analysis software, Biacore T100 Evaluation Software.

[2] = biological target: T1, SR344 (N-terminal 1st to 344th amino …); experiment: as above; remark: listed apart in the source
[3] = biological target: T1, SR344 (N-terminal 1st to 344th amino …); experiment: as above; remark: listed apart in the source
Experimental: The antigen-antibody interaction was measured by immobilizing purified Recomb Protein A/G (Pierce) (hereinafter “Protein A/G”) onto a sensor chip, binding various antibodies onto the chip, and then flowing the antigen over the chip as an analyte. Various concentrations of recombinant soluble IL-6 receptor (SR344) were used as the antigen. The measurement conditions were the same as described in Example 2.
Kinetic analysis was carried out using Biacore-specific data analysis software Biacore T100 Evaluation Software.

[4] = biological target: T1, SR344 (N-terminal 1st to 344th amino …); experiment: SPR (Biacore T100), Protein A/G capture, SR344 at 0, 0.36 and 1.4 µg/ml, 15 min dissociation, 37 C
Experimental: as §1
The Tm of purified H96/PF1L-IgG1 was determined by the method described in Example 5. The affinity measurement was carried out under essentially the same conditions used in Example 5. Note that the concentration of SR344 was adjusted to 0, 0.36, and 1.4 μg/ml, and the dissociation phase was monitored for 15 minutes.

[5] = biological target: T1, SR344 (N-terminal 1st to 344th amino …); experiment: as above; remark: listed apart in the source
[6] = biological target: T2, soluble human FcRn (complex of FcRn and β2-microglobulin) (human, UniProt P55899 24-290; P16213 21-119); experiment: SPR (Biacore 3000), antibody captured on Protein L or anti-human kappa chain antibody, human FcRn as analyte, pH 6.0, steady state affinity
T2 construct: also called hFcRn; copies: 1 + 1
Experimental: (§2) The binding to human FcRn was assessed using Biacore 3000. An antibody was bound to Protein L or rabbit anti-human IgG Kappa chain antibody immobilized onto a sensor chip, human FcRn was added as an analyte for interaction with the antibody, and the affinity (KD) was calculated from the amount of bound human FcRn. Specifically, Protein L or rabbit anti-human IgG Kappa chain antibody was immobilized onto sensor chip CM5 (Biacore) by the amine coupling method using 50 mM Na-phosphate buffer (pH 6.0) containing 150 mM NaCl as the running buffer. Then, an antibody was diluted with a running buffer containing 0.02% Tween20, and injected to be bound to the chip. Human FcRn was then injected and the binding activity of the human FcRn to antibody was assessed.
(§3) The affinity was computed using BlAevaluation Software. The obtained sensorgram was used to calculate the amount of hFcRn bound to the antibody immediately before the end of human FcRn injection. The affinity of the antibody for human FcRn was calculated by fitting with the steady state affinity method.

[7] = biological target: T2, soluble human FcRn (complex of FcRn and …); experiment: SPR (Biacore 3000), human FcRn as analyte, pH 6.0
[8] = biological target: T2, soluble human FcRn (complex of FcRn and …); experiment: SPR (Biacore 3000), antibody captured on Protein L or anti-human kappa chain antibody, human FcRn as analyte, pH 6.0, steady state affinity; remark: listed apart in the source
Experimental: as §2, §3

[9] = biological target: T1, SR344 (N-terminal 1st to 344th amino …); experiment: SPR (Biacore T100), antibody captured on Protein A, soluble human IL-6 receptor as analyte
Experimental: The antigen-antibody reaction kinetics between anti-human IL-6 receptor antibody and soluble human IL-6 receptor was analyzed using Biacore T100 (GE Healthcare Biosciences). The antigen-antibody interaction was measured by immobilizing rec-Protein A (Zymed) (hereinafter “Protein A”) onto a sensor chip, capturing an antibody with the immobilized Protein A, and then reacting the antibody with the antigen as an analyte using a method known to those skilled in the art. The running buffer used was HBS-EP+, and the flow rate was 20 μl/min. Each antibody was prepared so that about 100 RU of the antibody was bound to Protein A/G. Soluble human IL-6 receptor was prepared at 0, 0.065, 0.131, and 0.261 μg/ml using HBS-EP+ and used as an analyte. In the first step of the measurement, the antibody in solution was bound to Protein A/G, and the analyte solution was allowed to interact with the antibody. After three minutes of interaction, the solution was switched to HBS-EP+, and the dissociation phase was monitored for 10 or 15 minutes. After measurement of the dissociation phase, the sensor chip was regenerated by washing with 10 μl of 10 mM glycine-HCl (pH 1.5). The association, dissociation, and regeneration constitute one analysis cycle. Each antibody was measured according to this cycle. The obtained sensorgrams were kinetically analyzed using the Biacore-specific data analysis software, Biacore T100 Evaluation Software (GE Healthcare Biosciences).

[10] = biological target: T1, SR344 (N-terminal 1st to 344th amino …); experiment: SPR (Biacore T100), SR344 as analyte, 37 C
[11] = biological target: T1, SR344 (N-terminal 1st to 344th amino …); experiment: SPR (Biacore T100), antibody captured on anti-IgG (γ-chain specific) F(ab')2, SR344 as analyte, pH 7.4, 37 C
Experimental: Antigen-antibody reaction kinetics was analyzed using Biacore T100 (GE Healthcare). The SR344-antibody interaction was measured by immobilizing appropriate amounts of anti-IgG (γ-chain specific) F(ab′)2 onto a sensor chip by amine coupling method, binding antibodies of interest onto the chip at pH 7.4, and then flowing IL-6 receptor SR344 adjusted to be various concentrations at pH 7.4 over the chip as an analyte. All measurements were carried out at 37° C. The kinetic parameters, association rate constant kₐ (1/Ms) and dissociation rate constant kd (1/s) were calculated from the sensorgrams obtained by measurement. Then, KD (M) was determined based on the rate constants. The respective parameters were determined using Biacore T100 Evaluation Software (GE Healthcare).

B1: H53/L28 (antibody, IgG1, V domains shown)
VH: QVQLQESGPGLVKPSETLSLTCAVSGYSISDDHAWSWVRQPPGEGLEWIGYISYSGITNYNPSLKGRVTISRDTSKNQFSLKLSSVTAADTAAYYCARSLARTTAMDYWGEGTLVTVSS
VL: DIQMTQSPSSLSASVGDSVTITCQASQDISSYLNWYQQKPGKAPELLIYYGSELHSGVPSRFSGSGSGTDFTFTISSLEAEDAATYYCQQGNSLPYTFGQGTKVEIE
notes: Made from the vectors of the IgG1 antibody WT
- Kd [1]: 0.68 nM
- koff [1]: 0.00052 s⁻¹
- kon [1]: 760000 M⁻¹ s⁻¹
- fold improved affinity against WT [2]: ~6 fold
- Kd [3]: 0.68 nM
- koff [3]: 0.00052 s⁻¹
- kon [3]: 760000 M⁻¹ s⁻¹

B3: WT-M58 (antibody)
heavy: QVQLQESGPGLVRPSQTLSLTCTVSGYSITSDHAWSWVRQPPGRGLEWIGYISYSGITTYNPSLKSRVTMLRDTSKNQFSLRLSSVTAADTAVYYCARSLARTTAMDYWGQGSLVTVSSASTKGPSVFPLAPSSKSTSGGTAALGCLVKDYFPEPVTVSWNSGALTSGVHTFPAVLQSSGLYSLSSVVTVPSSNFGTQTYTCNVDHKPSNTKVDKTVERKSCVECPPCPAPPVAGPSVFLFPPKPKDTLMISRTPEVTCVVVDVSQEDPEVQFNWYVDGVEVHNAKTKPREEQFNSTFRVVSVLTVVHQDWLNGKEYKCKVSNKGLPAPIEKTISKTKGQPREPQVYTLPPSQEEMTKNQVSLTCLVKGFYPSDIAVEWESNGQPENNYKTTPPMLDSDGSFFLYSKLTVDKSRWQEGNVFSCSVMHEALHNHYTQKSLSLSP
light: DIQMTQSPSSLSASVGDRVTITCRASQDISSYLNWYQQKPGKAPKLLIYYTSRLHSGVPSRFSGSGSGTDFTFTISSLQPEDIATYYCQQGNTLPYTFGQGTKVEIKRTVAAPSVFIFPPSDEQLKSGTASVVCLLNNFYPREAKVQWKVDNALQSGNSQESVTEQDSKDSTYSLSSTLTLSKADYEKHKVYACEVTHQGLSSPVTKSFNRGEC
notes: also called M58 (WT)
- Kd [6]: 1170 nM
- binding activity relative to WT-IgG1 [7]: ~1.4 fold
- Kd [8]: 1030 nM

B5: 6R_a_H1L1 (antibody, human IgG1, kappa, V domains shown)
VH: QVQLQESGPGLVRPSQTLSLTCTVSGYSITSDHAWSWVRQPPGRGLEWIGYISYSGITTYNPSLKSRVTMLRDTSKNQFSLRLSSVTAADTAVYYCARVLARITAMDYWGQGSLVTVSS
VL: DIQMTQSPSSLSASVGDRVTITCRASQDISSYLNWYQQKPGKAPKLLIYYTSRLHSGVPSRFSGSGSGTDFTFTISSLQPEDIATYYCGQGNRLPYTFGQGTKVEIKR
notes: Anti-human IL-6 receptor antibody
- Kd [9]: 0.067 nM

B6: Fv3-M73 (antibody, V domains shown)
VH: QVQLQESGPGLVKPSETLSLTCAVSGHSISHDHAWSWVRQPPGEGLEWIGFISYSGITNYNPTLQGRVTISRDNSKNTLYLQMNSLRAEDTAVYYCARSLARTTAMDYWGEGTLVTVSS
VL: DIQMTQSPSSLSASVGDSVTITCQASRDISSHLNWYQQKPGKAPELLIYYGSHLLSGVPSRFSGSGSGTDFTFTISSLEAEDAATYYCGQGNRLPYTFGQGTKVEIER
notes: also called VH4-M73/VL1-kappa
- fold higher affinity than TOCILIZUMAB [10]: 3 fold
- Kd [11]: 1 nM
- koff [11]: 0.00087 s⁻¹
- kon [11]: 850000 M⁻¹ s⁻¹

B7: 6R_a_H2L2 (antibody, human IgG1, kappa, V domains shown)
VH: B1 VH with S99V, T103I
VL: B6 VL with R27Q, H32Y, H53E, L55H
- Kd [9]: 0.03 nM

B8: 6R_a_H3L3 (antibody, human IgG1, kappa, V domains shown)
VH: B6 VH with H27Y, H31D, F51Y, T63S, G66D, S99L, T103A, E111Q, T113I
VL: B6 VL with R27E, H32Y, H53E, L55E
- Kd [9]: 0.052 nM

Now from value to binder:

- Kd [4]: 0.031 nM
- koff [4]: 4.2e-05 s⁻¹
- kon [4]: 1.4e+06 M⁻¹ s⁻¹
- Kd [1]: 0.027 nM
- koff [1]: 3.5e-05 s⁻¹
- kon [1]: 1.3e+06 M⁻¹ s⁻¹
- fold improved affinity against WT [2]: ~150 fold
- Kd [5]: 0.03 nM
- koff [5]: 4.4e-05 s⁻¹
- kon [5]: 1.5e+06 M⁻¹ s⁻¹
B2: PF1 antibody (antibody, IgG1, V domains shown)
VH: B1 VH with S99V, T103I
VL: B1 VL with Q89G, S93R
notes: also called PF1-IgG1; PF1_H/PF1_L

- Kd [6]: 420 nM
- binding activity relative to WT-IgG1 [7]: ~3.8 fold
B4: WT-M73 (antibody)
heavy: B3 heavy with N432A
light: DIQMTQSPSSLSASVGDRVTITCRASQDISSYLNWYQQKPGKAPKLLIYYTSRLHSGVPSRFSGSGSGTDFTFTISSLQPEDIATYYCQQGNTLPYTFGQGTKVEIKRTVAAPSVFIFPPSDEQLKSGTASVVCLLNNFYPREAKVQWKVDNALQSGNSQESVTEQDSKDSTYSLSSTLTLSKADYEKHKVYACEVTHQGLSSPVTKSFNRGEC

- fold higher affinity than TOCILIZUMAB [10]: 2 fold
- Kd [11]: 1.4 nM
- koff [11]: 0.001 s⁻¹
- kon [11]: 750000 M⁻¹ s⁻¹
B9: Fv4-M73 (antibody, V domains shown)
VH: B6 VH with T63S
VL: B6 VL with R27T
notes: also called VH3-M73/VL3-kappa
